Laboratory results as given in the supplement of paper PMC10567573.

B1: CPN1 (parent)
chain: RGVRRTASTPTPDDKLFQKLAKVY

Variants of: B1
Experiment: protein stability index of a GFP-peptide fusion (GPS, HEK-293T) (PSI 1-6); higher = more stable
Conditions: c terminus: a fixed tail appended
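Also: lentivirally expressed fusions sorted by FACS into six bins by GFP to DsRed ratio, PSI derived from sequencing read proportions per bin multiplied by bin number.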

Variant | protein stability index
SGVRRTASTPTPDDKLFQKLAKVY | 2.85
TGVRRTASTPTPDDKLFQKLAKVY | 1.49
VGVRRTASTPTPDDKLFQKLAKVY | 2.34
WGVRRTASTPTPDDKLFQKLAKVY | 1.02
YGVRRTASTPTPDDKLFQKLAKVY | 2.93
RAVRRTASTPTPDDKLFQKLAKVY | 2.52
RCVRRTASTPTPDDKLFQKLAKVY | 2.22
RDVRRTASTPTPDDKLFQKLAKVY | 2.26
REVRRTASTPTPDDKLFQKLAKVY | 2.35
RFVRRTASTPTPDDKLFQKLAKVY | 1.51
RHVRRTASTPTPDDKLFQKLAKVY | 1.87
RIVRRTASTPTPDDKLFQKLAKVY | 1.76
RKVRRTASTPTPDDKLFQKLAKVY | 2.38
RLVRRTASTPTPDDKLFQKLAKVY | 1.24
RMVRRTASTPTPDDKLFQKLAKVY | 1.79
RNVRRTASTPTPDDKLFQKLAKVY | 3.13
RPVRRTASTPTPDDKLFQKLAKVY | 2.19
RQVRRTASTPTPDDKLFQKLAKVY | 1.94
RRVRRTASTPTPDDKLFQKLAKVY | 1.66
RSVRRTASTPTPDDKLFQKLAKVY | 3.13
RTVRRTASTPTPDDKLFQKLAKVY | 2.23
RVVRRTASTPTPDDKLFQKLAKVY | 2.84
RYVRRTASTPTPDDKLFQKLAKVY | 1.64
RGARRTASTPTPDDKLFQKLAKVY | 2.16

Variant | protein stability index
RGCRRTASTPTPDDKLFQKLAKVY | 2
RGDRRTASTPTPDDKLFQKLAKVY | 2.58
RGERRTASTPTPDDKLFQKLAKVY | 2.24
RGFRRTASTPTPDDKLFQKLAKVY | 2.24
RGGRRTASTPTPDDKLFQKLAKVY | 2.12
RGHRRTASTPTPDDKLFQKLAKVY | 2.13
RGIRRTASTPTPDDKLFQKLAKVY | 2.48
RGKRRTASTPTPDDKLFQKLAKVY | 1.62
RGLRRTASTPTPDDKLFQKLAKVY | 2.24
RGMRRTASTPTPDDKLFQKLAKVY | 1.84
RGNRRTASTPTPDDKLFQKLAKVY | 2.2
RGPRRTASTPTPDDKLFQKLAKVY | 2.35
RGQRRTASTPTPDDKLFQKLAKVY | 1.88
RGRRRTASTPTPDDKLFQKLAKVY | 2.84
RGSRRTASTPTPDDKLFQKLAKVY | 1.93
RGTRRTASTPTPDDKLFQKLAKVY | 2.89
RGWRRTASTPTPDDKLFQKLAKVY | 2.66
RGYRRTASTPTPDDKLFQKLAKVY | 2.27
RGVARTASTPTPDDKLFQKLAKVY | 2.01
RGVCRTASTPTPDDKLFQKLAKVY | 3.17
RGVDRTASTPTPDDKLFQKLAKVY | 3.69
RGVERTASTPTPDDKLFQKLAKVY | 2.16
RGVGRTASTPTPDDKLFQKLAKVY | 2.57
RGVHRTASTPTPDDKLFQKLAKVY | 2.17

Variant | protein stability index
RGVIRTASTPTPDDKLFQKLAKVY | 2.56
RGVKRTASTPTPDDKLFQKLAKVY | 1.51
RGVLRTASTPTPDDKLFQKLAKVY | 1.92
RGVMRTASTPTPDDKLFQKLAKVY | 2.26
RGVNRTASTPTPDDKLFQKLAKVY | 1.95
RGVQRTASTPTPDDKLFQKLAKVY | 1.76
RGVSRTASTPTPDDKLFQKLAKVY | 2.76
RGVVRTASTPTPDDKLFQKLAKVY | 2.35
RGVWRTASTPTPDDKLFQKLAKVY | 2.02
RGVYRTASTPTPDDKLFQKLAKVY | 1.54
RGVRATASTPTPDDKLFQKLAKVY | 3.41
RGVRCTASTPTPDDKLFQKLAKVY | 3.3
RGVRDTASTPTPDDKLFQKLAKVY | 2.69
RGVRETASTPTPDDKLFQKLAKVY | 2.57
RGVRFTASTPTPDDKLFQKLAKVY | 1.57
RGVRGTASTPTPDDKLFQKLAKVY | 1.7
RGVRHTASTPTPDDKLFQKLAKVY | 2.35
RGVRITASTPTPDDKLFQKLAKVY | 2.33
RGVRKTASTPTPDDKLFQKLAKVY | 1.85
RGVRLTASTPTPDDKLFQKLAKVY | 2.07
RGVRMTASTPTPDDKLFQKLAKVY | 2.51
RGVRNTASTPTPDDKLFQKLAKVY | 2.3
RGVRPTASTPTPDDKLFQKLAKVY | 2.79
RGVRQTASTPTPDDKLFQKLAKVY | 2.23

Variant | protein stability index
RGVRSTASTPTPDDKLFQKLAKVY | 2.23
RGVRTTASTPTPDDKLFQKLAKVY | 2.94
RGVRVTASTPTPDDKLFQKLAKVY | 1.87
RGVRWTASTPTPDDKLFQKLAKVY | 2.2
RGVRYTASTPTPDDKLFQKLAKVY | 1.89
RGVRRCASTPTPDDKLFQKLAKVY | 1.52
RGVRRDASTPTPDDKLFQKLAKVY | 2.93
RGVRREASTPTPDDKLFQKLAKVY | 2.12
RGVRRFASTPTPDDKLFQKLAKVY | 2.07
RGVRRGASTPTPDDKLFQKLAKVY | 1.74
RGVRRHASTPTPDDKLFQKLAKVY | 1.49
RGVRRIASTPTPDDKLFQKLAKVY | 1.67
RGVRRKASTPTPDDKLFQKLAKVY | 1.61
RGVRRLASTPTPDDKLFQKLAKVY | 1.73
RGVRRMASTPTPDDKLFQKLAKVY | 2.02
RGVRRNASTPTPDDKLFQKLAKVY | 1.56
RGVRRPASTPTPDDKLFQKLAKVY | 1.23
RGVRRQASTPTPDDKLFQKLAKVY | 2
RGVRRRASTPTPDDKLFQKLAKVY | 1.99
RGVRRSASTPTPDDKLFQKLAKVY | 1.97
RGVRRVASTPTPDDKLFQKLAKVY | 2.56
RGVRRWASTPTPDDKLFQKLAKVY | 2.02
